This experiment deals with Small BiT (SB)-eIF4E, full-length. The experiment in a line: cell-based or functional assay.
Small BiT (SB)-eIF4E, full-length, sequence (chain, as listed by the source limits assumed): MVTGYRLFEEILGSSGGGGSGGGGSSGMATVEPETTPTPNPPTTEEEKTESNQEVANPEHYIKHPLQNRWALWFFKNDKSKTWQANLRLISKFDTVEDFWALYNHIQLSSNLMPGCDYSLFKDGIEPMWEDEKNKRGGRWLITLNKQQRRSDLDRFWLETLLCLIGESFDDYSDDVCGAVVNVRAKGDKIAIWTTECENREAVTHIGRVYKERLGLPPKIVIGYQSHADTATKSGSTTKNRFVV
LB-4E-BP1 - residues 29 to end, sequence (Q13541 29-118): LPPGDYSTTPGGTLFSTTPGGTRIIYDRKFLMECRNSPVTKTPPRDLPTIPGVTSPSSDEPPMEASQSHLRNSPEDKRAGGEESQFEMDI
As for “4E-BP1 with C-terminal LB at residue 85 (from UniProt Q13541 1-85)”, the fold-change of split-luciferase luminescence, rapamycin (50 nM, 1 h) over vehicle; HEK293 cells is 0.89 fold.

Consider “4E-BP1 with C-terminal LB at residue 95 (from UniProt Q13541 1-95)”, for which the fold-change of split-luciferase luminescence, rapamycin (50 nM, 1 h) over vehicle; HEK293 cells came to 0.98 fold. The same measure for “Full-length 4E-BP1 with C-terminal LB (from UniProt Q13541 2-118)”: 1.18 fold; for “LB-4E-BP1 - residues 29 to end (from UniProt Q13541 29-118)”: 0.89 fold.

The values are drawn from US20180164286A1.
